From PMC5986207

Target: human HER2 extracellular domain, soluble, His-tagged (human)
Assay: AUC; multisignal sedimentation velocity (MSSV), 4:1 molar loading of HER2 to antibody (5.8:1.4 μM), PBS, 20 °C, 42,000 rpm, UV 280 and 250 nm and interference, SEDPHAT

Which results are given for “MEDI4276, anti-HER2 biparatopic, monospecific, tetravalent antibody (trastuzumab scFv on the N terminus of the 39S heavy chain) (bispecific antibody)”?
stoichiometry N (HER2 per MEDI4276 (2:1)): 2; stoichiometry N (HER2 per MEDI4276 (5:3)): 1.67
